Patent US20260062464A1

Columns and labels:
[1] = biological target: recombinant N2 neuraminidase of A/Wisconsin/67/2005 (H3N2) (Influenza A virus A/Wisconsin/67/2005 (H3N2)); assay: ELISA on plate-coated recombinant NA, absorbance 450 nm
[2] = biological target: recombinant N2 neuraminidase of A/Moscow/10/1999 (H3N2) (Influenza A virus A/Moscow/10/1999 (H3N2)); assay: BLI, NA on biosensor, Fab in solution, 1:1 fit
[3] = biological target: recombinant N2 neuraminidase of A/Wisconsin/67/2005 (H3N2) (Influenza A virus A/Wisconsin/67/2005 (H3N2)); assay: BLI, NA on biosensor, Fab in solution, 1:1 fit

B1: NDS.6 monoclonal antibody (antibody, V domains shown)
VH: QVQLVQSGPEVKKPGASVKVSCKASGYNFNRYGLTWVRQAPGQGLEWMGWISTYNSDTIYAREFRGRVTLTTDTSTRTAYMELRSLISADTAVYYCARDNVEEAFPISYYFDHWGQGTLVSVSS
VL: QSALTQPRSVSGSPGQSVTISCTGTSSDVGLYNYVSWYQHHPGKAPKFLIYDVTKRPSGVPDRFSGSKSGNTASLTISGLQAEDEADYYCCSYVGSYILVFGGGTKVTVL
EC50 (read off the curve) [1]: 0.2 µg/mL

B2: NDS.5 monoclonal antibody (antibody, V domains shown)
VH: QLRLQESGPGLVKPSETLSLTCTVSGGSITSSPYYWGWIRQPPGKGLEWIGSIYYSGSTYYNPSLRSRVTISLDTSMNQFSLKLSSVTAADTAVYYCAEEYYDFWRTQDWGQGTLVTVSS
VL: EIVLTQSPGTLSLSPGERATISCRASQSVSGRNLAWYQQKPGQAPRLLIYAASNRATGIPDRFSGSGSGTDFTLTISRLEPEDFAVYYCQQYGTSKTFGQGTKVEIK
EC50 (read off the curve) [1]: 0.05 µg/mL

B3: Fab of NDS.3 (Fab, V domains shown)
VH: EVQLVESGGGLVKPGGSLRLSCAASGFTFSDYSMTWIRQIPGKGLEWLSYTTSSGRPIFYADSVKGRFTMSRDNAKMSVYLQMNSLRDADSAVYYCARGDPHYIWGTYLDSWGPGTLVTVSS
VL: QSALTQPPSASGSPGQSVTISCTGTTSDFGDHNYVSWYQQRPGEAPKLIIYDVSKRPSGVPDRFSGSKSGNTASLTVSRLQADDEANYYCSSIEGSNTLLFGGGTKLTVL
Kd [2]: 18.9 nM | koff [2]: 0.000517 s⁻¹ | kon [2]: 27400 M⁻¹ s⁻¹ | Kd [3]: 60.9 nM | koff [3]: 0.00527 s⁻¹ | kon [3]: 86500 M⁻¹ s⁻¹

B4: Fab of NDS.1 (Fab, V domains shown)
VH: QVQLRQWGAGLLKPSETLSLTCDVYGGSFNFYFWTWIRQPPGKGLEWLGEITHSGSATYIPSLKSRVTLSVDTSKGQFSLKLTSVNVADTAVYYCAGLPIDYDTVHLGYYPMDVWGQGTPVTVSS
VL: DIQMTQSPSSLSASVGDRVTITCRASQGIRNYLAWYQQKPGKVPKLLIYGASTLQSGVPSRFSGSGSGTDFSLTISSLQPEDIATYFCQEYNNAPRTFGQGTKVEIK
Kd [2]: 0.217 nM | koff [2]: 1.16e-05 s⁻¹ | kon [2]: 53300 M⁻¹ s⁻¹ | Kd [3]: 75.6 nM | koff [3]: 0.00431 s⁻¹ | kon [3]: 57000 M⁻¹ s⁻¹

B5: Fab of NDS.1.1 (Fab, V domains shown)
VH: QVQIQQWGAGLLKPSDTLSLTCSVYGGSFNFYYWTWVRQPPGKGLEWLAEINHSGSINYIPSLNSRVALSVDTSKGQFSLRLSSVTAADTAVYYCTGVPIDYESLHLGYYPMDVWGQGTPVIVSS
VL: DIQMTQSPSSLSASVGDRVTITCRASQGISNYLAWWQQKPGQVPKLLIYAASTLQSGVPSRFSGSGSGTDFSLTISSLQPDDVAIYYCQKYNSAPRTFGQGTKVEIK
Kd [2]: 8.31 nM | koff [2]: 0.000187 s⁻¹ | kon [2]: 22500 M⁻¹ s⁻¹ | Kd [3]: 136 nM | koff [3]: 0.00565 s⁻¹ | kon [3]: 41500 M⁻¹ s⁻¹
